The assay concerns Aurelia ephyra. Put plainly: Arm regeneration induction in amputated Aurelia ephyrae. Conditions: amputated ephyrae, factor added to artificial seawater upon amputation. Type of assay: in vivo, Aurelia aurita. On the procedure: Amputation. Strobilated ephyrae were fed daily with rotifers (Brachionus plicatilis) until amputation time. 2-3 days old ephyrae were anesthetized in 400 μM menthol and amputated using a razor blade mounted on an x-acto knife handle. After amputation, ephyrae were let to recover in bubbler cones (FIG. 7). Regeneration was assessed at various times until 1-2 weeks after amputation, before onset of maturation to medusa.
Inducing regeneration. Experimental setup. 0.5-1 L sand settling cones were repurposed as jellyfish aquaria (Nalgene Imhoff; FIG. 7). Each cone was equipped with an airline from a Tetra Whisper air pump 100 to create a gentle vertical current (˜1 bubble/sec, see FIG. 30). The conical geometry eliminates stagnant spots, where the ephyrae could get stuck. In this “bubbler cone” setup, the ephyrae were continually in water current either in the upward air bubble-generated current or the downward self-generated current. 500 mL artificial seawater and 30 ephyrae were placed in each cone to avoid crowding and fouling. Artificial seawater was changed every week. Nutrients. […]
Amputation. […] Regeneration was assessed at various times for 1-2 weeks after amputation, before onset of maturation to medusa. […]

B1: Egf: protein tested in the screen (hEGF recombinant, Sigma E9644) (protein, UniProt P01133 23-1207, looked up)
Pro-epidermal growth factor: PQHWSCPEGTLAGNGNSTCVGPAPFLIFSHGNSIFRIDTEGTNYEQLVVDAGVSVIMDFHYNEKRIYWVDLERQLLQRVFLNGSRQERVCNIEKNVSGMAINWINEEVIWSNQQEGIITVTDMKGNNSHILLSALKYPANVAVDPVERFIFWSSEVAGSLYRADLDGVGVKALLETSEKITAVSLDVLDKRLFWIQYNREGSNSLICSCDYDGGSVHISKHPTQHNLFAMSLFGDRIFYSTWKMKTIWIANKHTGKDMVRINLHSSFVPLGELKVVHPLAQPKAEDDTWEPEQKLCKLRKGNCSSTVCGQDLQSHLCMCAEGYALSRDRKYCEDVNECAFWNHGCTLGCKNTPGSYYCTCPVGFVLLPDGKRCHQLVSCPRNVSECSHDCVLTSEGPLCFCPEGSVLERDGKTCSGCSSPDNGGCSQLCVPLSPVSWECDCFPGYDLQLDEKSCAASGPQPFLLFANSQDIRHMHFDGTDYGTLLSQQMGMVYALDHDPVENKIYFAHTALKWIERANMDGSQRERLIEEGVDVPEGLAVDWIGRRFYWTDRGKSLIGRSDLNGKRSKIITKENISQPRGIAVHPMAKRLFWTDTGINPRIESSSLQGLGRLVIASSDLIWPSGITIDFLTDKLYWCDAKQSVIEMANLDGSKRRRLTQNDVGHPFAVAVFEDYVWFSDWAMPSVMRVNKRTGKDRVRLQGSMLKPSSLVVVHPLAKPGADPCLYQNGGCEHICKKRLGTAWCSCREGFMKASDGKTCLALDGHQLLAGGEVDLKNQVTPLDILSKTRVSEDNITESQHMLVAEIMVSDQDDCAPVGCSMYARCISEGEDATCQCLKGFAGDGKLCSDIDECEMGVPVCPPASSKCINTEGGYVCRCSEGYQGDGIHCLDIDECQLGEHSCGENASCTNTEGGYTCMCAGRLSEPGLICPDSTPPPHLREDDHHYSVRNSDSECPLSHDGYCLHDGVCMYIEALDKYACNCVVGYIGERCQYRDLKWWELRHAGHGQQQKVIVVAVCVVVLVMLLLLSLWGAHYYRTQKLLSKNPKNPYEESSRDVRSRRPADTEDGMSSCPQPWFVVIKEHQDLKNGGQPVAGEDGQAADGSMQPTSWRQEPQLCGMGTEQGCWIPVSSDKGSCPQVMERSFHMPSYGTQTLEGGVEKPHSLLSANPLWQQRALDPPHQMELTQ
modifications: Pro-epidermal growth factor
B1: the “effect on arm regeneration / regeneration frequency (in words)” value is “no effect”.

For the origin of these results see patent US20220016127A1, “COMPOSITIONS AND METHODS FOR INDUCING APPENDAGE AND LIMB REGENERATION” (priority 2020, published 2022).
